Results from the nanobody polyreactivity screen of Harvey et al. (2022).

Test: yeast display, Sf9 membrane polyspecificity reagent, FACS + sequencing; frameworks hold sequencing errors
How it was run: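 Synthetic nanobody libraries on Saccharomyces cerevisiae BJ5465 were galactose-induced for 36–48 hours, stained 1 hour at 4 °C with 10% biotinylated, detergent-solubilized Sf9 membrane reagent and enriched on streptavidin microbeads. FACS then separated cells into low and high (top ~1%) gates by anti-HA (expression) and streptavidin (reagent binding) fluorescence. Genes were colony-PCR amplified, MiSeq 2 × 250 sequenced and CDR-length filtered. A clone's polyreactivity label is that of its gate of origin.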

Sequence	polyreactivity (PSR sort gate)
QVQLVESGRGLVQAGGSLRLSCAPSGFTFYRNEMGWYRQAPGKERELVAAITFSGGITYYADSVKGRFTISRDNAKNTVYLQMNSLKPEDTAVYYGAAEGVGPARVYQGGEYNYWGQGTQVTVSS	low polyreactivity
QFQLVESGGGIVQAGGSLRLSCAASGRTIYQYAMGWYRESPANERELVAAISRSGTSTYYADSVKGRFTISRDNAKNTVYLQMNSLKPEDTAVYFCAARYVSKYNYPSPEMYYWGQGTKVTVSS	high polyreactivity
QVQLVESGGGLVQAGGSLRLSCAASGGIFSAYVMGWSRQAPGKERELVAAITRRGGSTYYADSVKGRFTISRDNAKNTVYLQMNSLKPEDTAVYYCAALLRGQDRTMDYWGQGTQVTVSS	high polyreactivity
QVQLVESGGGLVQAGGSLRLSCAASGRIFVHYVMGWYRQAPGKERELVAAISRSGGRTYYADSVKGRFTISRDNAKNTVYLQMNSLKPEDTAVYYCNVYHWSRVFAIDYYWGQGTQVTVSS	high polyreactivity
QVQLVESGGGLVQAGCSLRLSCAASGIIFRSYAMGWYRQAPGKERELVAAITRSGGSTYADSVKGRFTISRDNAKNTVYLQMNSLKPEDTAVYYCAADRYSGWDYRRDYWGHGTQVTVSS	low polyreactivity
QVQLVESGGGLVQAGGSLRLSCAASGRKLSWNTMGWYRQAPGKETELVACITQNVGSTYYADSVKGRFTISRDNAKNTVYIQMKSLKPEDTAVYYCAAKRLSWHRYGYWGQGTQETVSS	low polyreactivity
QVQLVESGGGLVQAGGSLRLSCAASGFTFSWYAMGWSRQAPGKERELVAGISYSGTRTFYADSVKGRFTISRDNAKNTVYLQMNSLTPEDTAVYYCAAVVPGRTVLQPEYDYWGQGTQVTVSS	low polyreactivity
QVQLVESGGGLVQAGGSLRLTCAASGRISKIYAMGWYRQAPGKERELVAAINSGGSTNYADSVKGRFTISRDNAKNTVYLQMNSLKPEDTAVYYCAATFKSGMDFWGQGTQVTVSS	high polyreactivity
QVQLVESGGGLVQAGGSLRLSCAASGRTFNRYAMGWYRQAPGKEREFVASITRSGGSTYYADSVKGRFTISRDNAKNTVYLQMNSLKPEDTAVYYCAAQLRYKYDYWGQGTQVTVSS	high polyreactivity
QVQLVESGGGLVQAGGSLRLSCAASGSIVPVYAMGWYRQAPGKEREFVAGINTIGGSTYYADSVKGRFTISRDNAKNTVYLQMNSLKPEDTAVYYCAATQYWNMYSWGQGTQVTVSS	low polyreactivity
QVQLVESGGGLVQAGGSLRLSCAASGRIFYQNTMGWYRQAPGKERELVASISTTGGNTYYADSVKGRFTISRDNAKNTVYLQMNSLKPEDTAVYYCNAVRSVYLYGYIYGVDYWGQGTQVTVSS	low polyreactivity
QVQLVESGGGLVQAGGSLRLSCAASGIIFRRYARGWYRQAPGKERELVAAITSGGDTNYADSVKGRFTISRDNAKNTVYLQMNSLKPEDTAVYYSNAGLRGVRRYGFDYWGQGTQVTVSS	high polyreactivity
QVQLVESGGGLVQAGGSLRLSCAASGFIFIFYAMGWYRQAPGKERELVAGISWSSSSTYYADSVKGRFTISRDNAKNTVYLQMNSLKPEDTAVYYCAKDGRSVSGEYDYWGQGTQVTVSS	low polyreactivity
QVQLVESGGGLVQAGGSLRLSCAASGSTFYANTMGWYRTAPGKERELVAAITYGGGNTYYADSVKGRFTISRDNAKNTVYLQMNSLKPEDTAVYYCAARDYVSYYTRFDYWGQGTQVTVSS	high polyreactivity
QVQLVESGGGLVQAGGSLRLSCAASGSIFAYNAMGRYRPAPGKERELGAAITSDDSTNYADSVKGRFTISRDNAKNSVYLQMNSLKPEDTAVYYCAAYYYYTYIIGYDYCGQGTQVTVSS	low polyreactivity
QVQLVESGGGLVQAGGSLRLSCAASGSIFWWYGMGWYRQAPGKEREFVADITSGGGTYYADSVKGRFTISRDNAKNTVYLQMNSLKPEDTAVYYCAADVRAYRFDYYFDYWGQGTQVTVSS	low polyreactivity
QVQLVESGGGLVQAGGSLRLSSAASGSTFTFYAMGWYRQAPGKERELVATISWSTGTTYYADSVKGRFTISRDNAKNTVYLQMNSLKPEVTAVYYCAAPWSYRYDYWGQGTQVTVSS	low polyreactivity
QVQLVESGGGLVQAGGSLRLSCAASGFIFGSNVMGWYRQAPGKERELVAAITSGSRTYYADSVKGRFTISRDNAKNTVYLQMNSLKPEDTAVYYCAKRNPIKYYGGGYWGQGTQVTVSS	high polyreactivity
QVQLVESGGGLVQAGGSLRLSCAASGYTFSGYAMGWYRQAPGKERELVAAISGSSTRTYYADSVKGRFTITRDYAKNTVYFQMNSLKPEDTAVYYCAARFRHGGPYKYGYWGHGTQVTVSS	high polyreactivity
QVHLVESGGGLVQAGGSLRLSCAASGRTFYDYTMGLDRQAPGKERELVAAISQRGGSTYYADSVKGRFTISRDNAKNTVYLQMNSLKPEDTAVYYCAARTSYSGNKYYYWGQGTQVTVSS	high polyreactivity
QVQLVESGGGLVQAGGSLRLSCAASGSIFGTNTMGWYRQAPGKERELVAAIRLSDSSTYYADSVKGRFTISRDNAKNTVYLQMNSLKPEDTAVYYCAVDYRAYHYYRYDYWGQGTQVTVSS	low polyreactivity
QVQLVESGGGLVQAGGSLRLSCAASGGTCGTNAMGWYRQAPGKEREFVAAISRSGGSTNYADSVKGRFTISRDKAKNTVYLQMNSLKPEDTAVYYCATRVIVVPLGGGYYSWGQGTQVTVSS	high polyreactivity

Sequence	polyreactivity (PSR sort gate)
QVQLVESGGGLVQAGGTLRLSCAASGSTFRYNAMGWYRQEPGKEWELVAAITDSGSSTYYADSVKGRFTISRDNAKNTVYLQMNSLKPEDTAVYYCAAAGSRYAWGYVYWGQGTQVTVSS	high polyreactivity
QVQLVESGGGLVQAGGSLRLSCAASVIIFTRYAMGWYRQATGKERELVAGITRRGGSTYYADSVKGRFTISRDNAKNTVYLQMKSLKPEDTAVYYCNTYQRDYPYGVEDDSWGQGTEVTVSS	high polyreactivity
QVQLVESGVGLVQAVGSLRLSCAASGIILHYYAMGWYRQAPGKERELVAAISARGGRTYYADSVKGRFTISRDNAKNTVYLQMNSLKPEDTAVYYCAKDTRRSGVSTYTGNMDYWGHGTQVTVSS	high polyreactivity
QVQLVESGGGLVQAGGSLRIICAASGRTFRGYAMGWYRQAPGKERELVAAITSGGSTNYADSVKGRFTISRDNAKNTVYLQMHSLKPEDTAVYYCNRDTSKYGLWRYIYDYWGQGTQVTVSS	low polyreactivity
QVQLVESGGGLVQAGGSLRLICAASGRTFYVNAMGWYRQAPGKERELVATITDRGGRTYYADSVKGRFTISRDNAKNTVYLQMNSLKPEDTAVYYCAATRWYEVDYWGQGTQVTVSS	low polyreactivity
QVQLVESGGGLVQAGGSLRLSCAASGSIFSYNVMGWYRPAPGKERELVAAITQSGTSTYYADSVKGRFTISRDNAKNTVYLQMNSLKPEDTAVYYCAVDWYSAYGGYYWSQYDYWGQGTQVTVSS	low polyreactivity
QVQLVESGGGLVQAGGSLRLSCAASGRISGYNAMGWYRPAPGKQRELVAVITGSGGTYYADSVKGRFTISRDNAKNTVYLQMNSLKPEDSAVYYCAAGLAIRTYYPRYDYWGQGTQVTVSS	low polyreactivity
QVQLVESGGGLVQAGGSLRLSCAASGRIFYPYAMGWYRQAPGKEREFVAAISYRGTSTFYADSVKGRFTISRDNAKNTVYLQMNSLKPEDTAVYYCAARVLWYGRATAAVTPYDYWGQGTQVTVSS	high polyreactivity
QVQLVESGGGLVQAGGSLRLSCAASGIFDPNAMGWNRQAPRKERELVAAITSGGSTNYADSVKGRFTISRDNAKNTVYLQMNSLKPEDTAVYYCNRVEGRTRWADEMNYWGQGTQLTVSS	low polyreactivity
QVQLVESGGGLVQAGGSLRLSCAASGRTFRRYAIGWYRQAPGKERELVATISSGGSTNYADSVKGRFTISRDNAKNTVYLQMNSLKPEDTAVYYCATPQTRTYDYWGQGTQGTVSS	high polyreactivity
QVQLVESGGGLVQAGGSLRLSCAASGSIFRGYAMGWYRQAPGKEREFVASITWSAGRTRYADSVKGRFTISRDNAKNTVYLQMNSLKPEDTAVYYCAADHGSYWPRYDYWGQGTQVTVSS	high polyreactivity
QVQLVESSGGLVQAGGSLRLSCAASGITFYYYAMGWYRQAPGKERELVAVITGNGGRTYYADSVKGRFTISRDNAKNTVYLQMNSLKPEDTAVYYCAALYDGIYDSWGQGTQVTVSS	high polyreactivity
QVQLVESGGGLVQAGGSLRLSCAASGLIFARYATGWYRQAPGKERELVAAITDTGDITYSADSVKGRFTISRDNAKNTVYLQMNSLKPEDTGVYYCNADGVESVGGVETLYWRGGYWGQGTQVTVSS	low polyreactivity
QVQLVESGGGLVQAGGSLRLSCAASGRIFSIYAMGWYRQAPVKERELVAAISKRGGSTSYADSVKGRFTISRDNAKNTVYLQMNSLKPEDTAVYYCNARGWIPARGWDDYYWGQGTQVTVSS	high polyreactivity
QVQLVESGGGLVQAGGSLRLSCAASGRIFSYNAMGFYRQAPGKERELVAGITYGSTYYADSVKGRFTISRDNAKNTVYLQMNSLKPEDTAVYYCAADLSYTSVHGYRSDTLMDYWGQGTQVTVSS	low polyreactivity
QDQLVESGGGLVQAGGSLRLTCAASGITFYRYAMGWYRQAPGKERELVAAITSGGRTNYADSVKGRFTISRDNAKNTVYLQMNSMKPEDTAVYYCGARLVRESEPLGYWGQGTQVTVSS	high polyreactivity
QVQLVESGGGLVQAGGSLRLSCAASGRTFWPNVMGWYRQAPGKERELVAALTWGDASTYYADSVKGRFTISRDNAKYTVYLQMNSLKPEDTAVYYCAASDYRRTYDYWGQGTQVTVSS	low polyreactivity
QVQLVESGGGLVQAGGSLRLSCAAYGSTFGYNAMGWYRQAPGKESELVAAISSTSGSTYYADSVKGRFTISRDNAKNTVYLQMNSLKPEDTAVYYCAADDGDTNAYYFWKPYYYWGQGTQVTVSS	low polyreactivity
QVQLVESGGGLVQAGGSLRLSCAASGNIFVVNAMGWYRQAPGKERELVAGITTNGGRTFYADSVKGRFTISRDNAKNTVYLQINSLKPEDTAVYYWNARHGRHRRTRFAKYDYWGQGTQVTVSS	high polyreactivity
QVQLVESGGGLVQAGGSLRLSCAASGRIFRRYAMGWYRQAPGKERELVAAITSGSSTNYADSVKGRFTISRDNAKNTVYLQMNSLKPEDTAVYYCNAKLRGYYYSRYNYWGQGTQVTVSS	high polyreactivity
QVQLVESGGGLLQAGGSLRLSCAASGIIFHYNAMGWYRQAPWKQRELVAAITSTDNTNYADSVKGRFTISRDNAKNTVYLQMNSLIAEATAVYYCNASVGRDSAYDYWGQGTQVTVSS	low polyreactivity
